# Source: the DeepSol protein solubility set
# Test: soluble on expression in E. coli; label from the status in PepcDB or PDB records
row,Sequence,soluble on expression in E. coli
1,MGSDKIHHHHHHADVRMPLIFGDHMVLQQDTKIAIFGWADAGETVEVVFAGQKVKTTADTDGTWRVNLKPIKTKKEGQTLTIAGKNKLVYSDVLVGDVWVASGQSNMEWGIKVRKEYADDISASEDPLLRLFFVPKNTSLEPLTDIEVPQGTSNPERAARWVLCTPEMLAKINGQGFSATAYYFARDMRAANGRPLGVIQSAWGGTRAEAWTSLSGLKQEPALAHYVAAYEKNVKDNPEILATYPQKQKEFDEAVREWDKTVGKEWNQAQKEWAIAVQAAQAAGKPAPPKPQPSVPRPPNPRKPNGGNNGPSNLFNAMISPLIPLSIKGVIWYQGEFNSGGSGKEYATLFSRMITDWREKWGIGDFPFVYVQLPNFEPVDPEPSVEGNGWRWVREGQLKALNLPNTAMAVTIDVGDPFDLHPVDKYDVGHRLALAARKLAYGEKIVGMGPLYKKMSVKGNKIILEFTNQGKKLVMGTSPYIPAGKPPHPKPTKLTGFGIAGADRKFVWADAVIEGNKVIVSSSEVAVPLAVRYGFSNSPRCNLYNEKGLPASPFRTDSWDK,not soluble
2,MGSDKIHHHHHHADWKVGIQTWTFHNLTLMETLDKTQQLGMGYAEAFFFQELGAPFPKETYLNYDLSDDNCALLRHEFKIRGIKPIAFGVASYGTNEEWDKFFAFAHKIGAHIVTVEPELNQLDYIESLAKKYDMEVAIHNHPSPCIYASAEVVEKALKGRSPLMGVCADIGHWKRVGEDPLKNLQKLSGRIKVAHLKDLTDKMEDATWGTGILPVKAFVNELKRQHFNGLISIEYDDFKSDIQEIRNSLEFLQKCSK,not soluble
3,MGSDKIHHHHHHAHELEANEKYPGKSVKAQTRKEIVTFFSESLSGKTTTFDAGKPLKLSEVEHYRDVVWQLWKEANDGFKEEKLIALDTLSSASTGYWKLPDSLEPNAVMPYYWGMKGTDEIGNELPLFLYLHGSGPKEREWSTGLNICRNFDDAPSVYFIPQIPNEGEYYRWWQKAKQFAWEKLLRQSLLLGKIDPNRVYVFGISEGGYGSQRLASFYADYWAAAGPMAGGEPLKNAPAENCSNIAFSLRTGDKDTGFYRNTLTGYVREAFDSLAHQHPGYFTHKIELIPGMGHSIDYRPTTPWLKQYVRNPYPKYVSWENFEMDGLYRKGFYNLYVKERSDEEGKSRTYYEMSISGNHISLKVDDVVYEATEKDQRWGIEMKFAKKYAQAHKGKVVIYLCDELVDLTEKVTLTVNGKKVFEGKVKADLKNMVNSCAVFFDPQRLYPAAIEVELK,not soluble
4,MGSDKIHHHHHHALEENKEAKSLLEGIWLDDNTETALLRVKGDTLFYADAATAPVAFKIIGDSLITYGARTNGYKIEKQGEHIFWFHSAVGDVIRLHKSDTENDSLAFIHTREIPVYNEVIKKDSVVTYDNVRYRGYVYINPSKIKVMRPGVSEEGLGVDNVYYDNIIHICVYEGRKSLYAKDITKQMFKGVVPDDFLQWAILSDMDFMGVDSKGYHYQATVCIPDGASCYMVNITAGKDGGLAFELVR,not soluble
5,MGSDKIHHHHHHARPLSDVLNDVAARFQVRLKYDVDTVGRVLPYADFRIRPYSLEETLTNVLSPFDYKFVKQSDKVYKLKPYEYARRTDADGEKMLAYLSGLYSDKSQWEQRREILRKEVRQRLGLDDMLGKTVKDAKPVLSKIRKFDGYTVQNFALETLPGLYVCGSVYAPRTKGKHALIICPNGHFGQGRYRKDQQQRMATLARMGAVCVDYDLYGWGESALQVGGKAHHTADAHTIQAMNGIWILDYMLANRKDIDPACIGVNGGSGGGTQTVLLTVLDDRFTAAAPVVSLASHFDGGCPCESGKPIQLAGGGTCNAELAALFAPRPMLVVSDGGDWTATVPRLEYPYLQRIYGFYGATDKVSNVHLPQERHDFGPNKRNAVYDFFIDVFGLDRNMLDESKVTIEPEDALKSFGEKGEKLPAGALRYKE,not soluble
6,MGSDKIHHHHHHARRNVLRKTWMNPENSEIIKDGRMKALFLVGMTDGDDSRMRKVVMEEARIYGDMVVVDLKDTYEELPFKSLTTLLYGTSKASEFKLIGKIDEDIMFFPDKILPLLEQNLIDPSSESIYGMLFAEGGYVYRDKEHRWFVPDSTYGCDMFPPYTGGLFYLVTQDAAKKILNATKHRIFIPIEDALINGILANDCKIPRIHLPEIYGDHHSLTDEDTRGVLAWHTGKNDQQFLDYFYRKLSESRLKKKILDEKNKHLFY,not soluble
